First the molecules themselves.
B1: MYOZ1 (parent)
chain: FSDSSMDHFQKFLPTVGGQLGTAG

For 94 variants, protein stability index results are on record in the supplement of paper PMC10567573.
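Further: lentivirally expressed fusions sorted by FACS into six bins by GFP to DsRed ratio, PSI derived from sequencing read proportions per bin multiplied by bin number.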

Variants of B1 are the subject of this series. In words: protein stability index of a GFP-peptide fusion (GPS, HEK-293T) (PSI 1-6); higher = more stable. The conditions noted are these: c terminus: a fixed tail appended.
For the variant FSDSSMDHFQKFFPTVGGQLGTAG [L13F], the protein stability index worked out at 3.09.

As for FSDSSMDHFQKFPPTVGGQLGTAG [L13P], the protein stability index turned out to be 3.06.

FSDSSMDHFQKFGPTVGGQLGTAG [L13G]: the protein stability index turned out to be 3.44.

Regarding FSDSSMDHFQKFTPTVGGQLGTAG [L13T], the protein stability index was 3.53.

For the variant FSDSSMDHFQKFCPTVGGQLGTAG [L13C], the protein stability index was 2.75.

Consider FSDSSMDHFQKFAPTVGGQLGTAG [L13A], for which the protein stability index came to 2.52.

For FSDSSMDHFQKFWPTVGGQLGTAG [L13W], the protein stability index was 1.82.

For the variant FSDSSMDHFQKFYPTVGGQLGTAG [L13Y], the protein stability index turned out to be 2.76.

With FSDSSMDHFQKFQPTVGGQLGTAG [L13Q], the protein stability index was 3.18.

With FSDSSMDHFQKFHPTVGGQLGTAG [L13H], the protein stability index turned out to be 3.29.

As to FSDSSMDHFQKFEPTVGGQLGTAG [L13E], the protein stability index was 4.42.

FSDSSMDHFQKFNPTVGGQLGTAG [L13N]: the protein stability index came out at 3.1.

Turning to FSDSSMDHFQKFVPTVGGQLGTAG [L13V], the protein stability index stood at 2.97.

On to FSDSSMDHFQKFIPTVGGQLGTAG [L13I], for which the protein stability index came out at 1.9.

For the variant FSDSSMDHFQKFKPTVGGQLGTAG [L13K], the protein stability index came out at 3.53.

On to FSDSSMDHFQKFDPTVGGQLGTAG [L13D], for which the protein stability index is 3.44.

FSDSSMDHFQKFSPTVGGQLGTAG [L13S]: the protein stability index turned out to be 2.76.

Regarding FSDSSMDHFQKFRPTVGGQLGTAG [L13R], the protein stability index is 2.92.

Consider FSDSSMDHFQKFMPTVGGQLGTAG [L13M], for which the protein stability index is 3.29.

Regarding FSDSSMDHFQKYLPTVGGQLGTAG [F12Y], the protein stability index is 2.77.

Regarding FSDSSMDHFQKALPTVGGQLGTAG [F12A], the protein stability index worked out at 3.98.

In the case of FSDSSMDHFQKCLPTVGGQLGTAG [F12C], the protein stability index amounted to 2.92.

For FSDSSMDHFQKELPTVGGQLGTAG [F12E], the protein stability index came out at 4.6.

On to FSDSSMDHFQKTLPTVGGQLGTAG [F12T], for which the protein stability index worked out at 3.16.

As for FSDSSMDHFQKDLPTVGGQLGTAG [F12D], the protein stability index was found to be 4.08.

FSDSSMDHFQKRLPTVGGQLGTAG [F12R]: the protein stability index was determined as 3.5.

Turning to FSDSSMDHFQKQLPTVGGQLGTAG [F12Q], the protein stability index came to 3.04.

In the case of FSDSSMDHFQKMLPTVGGQLGTAG [F12M], the protein stability index amounted to 3.11.

Turning to FSDSSMDHFQKGLPTVGGQLGTAG [F12G], the protein stability index came out at 3.15.

With FSDSSMDHFQKLLPTVGGQLGTAG [F12L], the protein stability index was found to be 2.88.

Consider FSDSSMDHFQKKLPTVGGQLGTAG [F12K], for which the protein stability index is 3.67.

On to FSDSSMDHFQKHLPTVGGQLGTAG [F12H], for which the protein stability index came out at 3.28.

On to FSDSSMDHFQKILPTVGGQLGTAG [F12I], for which the protein stability index is 2.08.

For the variant FSDSSMDHFQKSLPTVGGQLGTAG [F12S], the protein stability index worked out at 3.67.

Take FSDSSMDHFQKPLPTVGGQLGTAG [F12P]: the protein stability index was 3.61.

On to FSDSSMDHFQKNLPTVGGQLGTAG [F12N], for which the protein stability index came out at 3.68.

Consider FSDSSMDHFQKWLPTVGGQLGTAG [F12W], for which the protein stability index is 1.85.

With FSDSSMDHFQKFLPAVGGQLGTAG [T15A], the protein stability index worked out at 2.64.

Consider FSDSSMDHFQKFLPNVGGQLGTAG [T15N], for which the protein stability index is 1.7.

For the variant FSDSSMDHFQKFLPPVGGQLGTAG [T15P], the protein stability index came out at 2.51.

Consider FSDSSMDHFQKFLPKVGGQLGTAG [T15K], for which the protein stability index was 2.64.

In the case of FSDSSMDHFQKFLPLVGGQLGTAG [T15L], the protein stability index stood at 1.9.

FSDSSMDHFQKFLPQVGGQLGTAG [T15Q]: the protein stability index was 2.94.

Consider FSDSSMDHFQKFLPMVGGQLGTAG [T15M], for which the protein stability index worked out at 1.85.

FSDSSMDHFQKFLPCVGGQLGTAG [T15C]: the protein stability index was determined as 2.33.

For the variant FSDSSMDHFQKFLPSVGGQLGTAG [T15S], the protein stability index was 2.93.

Take FSDSSMDHFQKFLPRVGGQLGTAG [T15R]: the protein stability index worked out at 2.08.

In the case of FSDSSMDHFQKFLPHVGGQLGTAG [T15H], the protein stability index amounted to 2.69.

Consider FSDSSMDHFQKFLPGVGGQLGTAG [T15G], for which the protein stability index was 2.46.

Turning to FSDSSMDHFQKFLPVVGGQLGTAG [T15V], the protein stability index was 2.66.

For the variant FSDSSMDHFQKFLPFVGGQLGTAG [T15F], the protein stability index was found to be 2.13.

Turning to FSDSSMDHFQKFLPIVGGQLGTAG [T15I], the protein stability index is 2.43.

As to FSDSSMDHFQKFLPDVGGQLGTAG [T15D], the protein stability index turned out to be 2.61.

Consider FSDSSMDHFQKFLPEVGGQLGTAG [T15E], for which the protein stability index was 2.5.

As to FSDSSMDHFQKFLPYVGGQLGTAG [T15Y], the protein stability index was found to be 1.93.

FSDSSMDHFQKFLPWVGGQLGTAG [T15W]: the protein stability index was 1.33.

As for FSDSSMDHFQKFLPTVGGCLGTAG [Q19C], the protein stability index was found to be 1.96.

FSDSSMDHFQKFLPTVGGHLGTAG [Q19H]: the protein stability index turned out to be 1.74.

Regarding FSDSSMDHFQKFLPTVGGDLGTAG [Q19D], the protein stability index was found to be 2.58.

With FSDSSMDHFQKFLPTVGGSLGTAG [Q19S], the protein stability index stood at 2.2.

Consider FSDSSMDHFQKFLPTVGGFLGTAG [Q19F], for which the protein stability index came out at 1.42.

Turning to FSDSSMDHFQKFLPTVGGILGTAG [Q19I], the protein stability index turned out to be 2.01.

For the variant FSDSSMDHFQKFLPTVGGNLGTAG [Q19N], the protein stability index stood at 2.08.

In the case of FSDSSMDHFQKFLPTVGGGLGTAG [Q19G], the protein stability index is 2.05.

As to FSDSSMDHFQKFLPTVGGWLGTAG [Q19W], the protein stability index came out at 2.35.

With FSDSSMDHFQKFLPTVGGRLGTAG [Q19R], the protein stability index is 3.06.

Consider FSDSSMDHFQKFLPTVGGELGTAG [Q19E], for which the protein stability index stood at 3.12.

On to FSDSSMDHFQKFLPTVGGYLGTAG [Q19Y], for which the protein stability index was found to be 2.04.

As for FSDSSMDHFQKFLPTVGGMLGTAG [Q19M], the protein stability index is 2.03.

Take FSDSSMDHFQKFLPTVGGALGTAG [Q19A]: the protein stability index amounted to 1.79.

Take FSDSSMDHFQKFLPTVGGPLGTAG [Q19P]: the protein stability index was 2.51.

In the case of FSDSSMDHFQKFLPTVGGTLGTAG [Q19T], the protein stability index amounted to 2.29.

For FSDSSMDHFQKFLPTVGGVLGTAG [Q19V], the protein stability index was 1.89.

Regarding FSDSSMDHFQKFLPTVGGKLGTAG [Q19K], the protein stability index is 2.33.

FSDSSMDHFQKFLPTVGGLLGTAG [Q19L]: the protein stability index worked out at 2.16.

For FSDSSMDHNQKFLPTVGGQLGTAG [F9N], the protein stability index is 3.84.

On to FSDSSMDHPQKFLPTVGGQLGTAG [F9P], for which the protein stability index came to 4.38.

Consider FSDSSMDHTQKFLPTVGGQLGTAG [F9T], for which the protein stability index was 2.48.

For FSDSSMDHVQKFLPTVGGQLGTAG [F9V], the protein stability index is 3.71.

Take FSDSSMDHQQKFLPTVGGQLGTAG [F9Q]: the protein stability index came to 3.88.

Turning to FSDSSMDHYQKFLPTVGGQLGTAG [F9Y], the protein stability index is 2.78.

As for FSDSSMDHRQKFLPTVGGQLGTAG [F9R], the protein stability index worked out at 2.6.

As to FSDSSMDHWQKFLPTVGGQLGTAG [F9W], the protein stability index stood at 1.89.

For the variant FSDSSMDHSQKFLPTVGGQLGTAG [F9S], the protein stability index was 3.61.

As for FSDSSMDHFQKFLPTVGYQLGTAG [G18Y], the protein stability index amounted to 1.64.

For FSDSSMDHFQKFLPTVGFQLGTAG [G18F], the protein stability index was 1.51.

Regarding FSDSSMDHFQKFLPTVGQQLGTAG [G18Q], the protein stability index stood at 2.63.

FSDSSMDHFQKFLPTVGPQLGTAG [G18P]: the protein stability index was 2.43.

As to FSDSSMDHFQKFLPTVGCQLGTAG [G18C], the protein stability index was 2.04.

For FSDSSMDHFQKFLPTVGDQLGTAG [G18D], the protein stability index was determined as 3.05.

In the case of FSDSSMDHFQKFLPTVGVQLGTAG [G18V], the protein stability index is 1.94.

FSDSSMDHFQKFLPTVGHQLGTAG [G18H]: the protein stability index came to 2.04.

Turning to FSDSSMDHFQKFLPTVGLQLGTAG [G18L], the protein stability index came out at 2.3.

For the variant FSDSSMDHFQKFLPTVGSQLGTAG [G18S], the protein stability index was found to be 2.48.
